T1: Human CD27-His (human, UniProt P26842 21-192)
T1 construct: also called CD27-His (Sino Biological #10039-H08B1); not shown: His tag
T1 sequence (looked up): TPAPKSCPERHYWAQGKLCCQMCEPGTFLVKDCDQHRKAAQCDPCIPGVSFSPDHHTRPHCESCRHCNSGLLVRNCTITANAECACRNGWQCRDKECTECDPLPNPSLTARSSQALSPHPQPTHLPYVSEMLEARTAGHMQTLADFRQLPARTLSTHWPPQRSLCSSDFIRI

T2: Human CD27-HisFc (human, UniProt P26842 21-192)
T2 construct: Bought reagent; also called CD27-HisFc (Sino Biological #10039-H03H); human CD27-HisFc fusion protein; not shown: His tag and Fc
T2 sequence (looked up): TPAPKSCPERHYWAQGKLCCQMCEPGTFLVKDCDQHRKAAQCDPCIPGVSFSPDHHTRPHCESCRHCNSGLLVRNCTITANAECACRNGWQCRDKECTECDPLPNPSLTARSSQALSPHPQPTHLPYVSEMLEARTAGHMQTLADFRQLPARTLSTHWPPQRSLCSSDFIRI

T3: human CD27-his antigen (Yiqiao Shenzhou #10039-H08H) (human, UniProt P26842 21-192)
T3 construct: Bought reagent; also called huCD27-his (Sino Biological); not shown: His tag
T3 sequence (looked up): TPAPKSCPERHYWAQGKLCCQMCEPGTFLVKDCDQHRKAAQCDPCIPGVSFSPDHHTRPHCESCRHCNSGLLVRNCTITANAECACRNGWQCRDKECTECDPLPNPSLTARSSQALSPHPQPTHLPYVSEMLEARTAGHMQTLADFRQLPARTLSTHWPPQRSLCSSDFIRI

T4: Murine CD27-HisFc (murine, UniProt P41272 24-182, limits assumed)
T4 construct: not shown: His tag and Fc
T4 sequence (looked up): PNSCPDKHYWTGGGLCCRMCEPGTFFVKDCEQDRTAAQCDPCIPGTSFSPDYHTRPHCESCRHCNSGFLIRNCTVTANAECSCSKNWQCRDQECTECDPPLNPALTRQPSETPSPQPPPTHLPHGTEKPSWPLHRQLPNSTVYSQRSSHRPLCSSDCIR


Assays:
Macaca CD27-Fc = Macaca CD27-Fc (Macaca); experiment: BLI (Octet RED96), 1:1 Langmuir fit; format for IgG not described
Human CD27-His = biological target: T1, Human CD27-His; experiment: as above
Human CD27-HisFc [1] = biological target: T2, Human CD27-HisFc; experiment: BLI (Octet RED96), CD27-HisFc captured on AHC sensor, Fab in solution, 1:1 Langmuir fit
Text: The antibody Fab fragment of each unique sequence with addition of histidine tag at its C-terminus was overexpressed using E. coli expression system, and then purified by Ni-NTA affinity resin. […] The collected data was processed by Data Acquisition 7.1 software and fitted to a 1:1 Langmuir model curve. The antibody mAb077 with the best binding capacity was obtained by screening for further analysis and development experiments.

[2] = biological target: T3, human CD27-his antigen (Yiqiao Shenzhou …); experiment: SPR (Biacore T200), antibody captured on protein A chip, CD27-his as analyte, 1:1 Langmuir fit
Text: The protein A biosensor chip was used to affinity capture the antibody molecule to be tested, and then the human CD27-his antigen (Yiqiao Shenzhou #10039-H08H) of various gradient concentrations was flowed on the surface of the chip, and the reaction signal was detected in real time with the Biacore T200 instrument to obtain the association and dissociation curve. After the dissociation of each experimental cycle was completed, the biosensor chip was washed and regenerated with glycine-hydrochloric acid regeneration solution (pH 1.5). BIAevaluation version 4.1 and GE software were used to fit the data with a (1:1) Langmuir model, the affinity values were obtained as shown in the table below. The affinity of the mutant molecule 077N74T is slightly higher than that of the original mAb077 molecule but there is no significant difference.

Human CD27-HisFc [3] = biological target: T2, Human CD27-HisFc; experiment: BLI (Octet RED96), 1:1 Langmuir fit; format for IgG not described
Murine CD27-HisFc = biological target: T4, Murine CD27-HisFc; experiment: as above

Row | Kd (Macaca CD27-Fc) [nM] | koff (Macaca CD27-Fc) [s⁻¹] | kon (Macaca CD27-Fc) [M⁻¹ s⁻¹] | Kd [2] [nM] | koff [2] [s⁻¹] | kon [2] [M⁻¹ s⁻¹] | Binder | other results
1 | 2.13 | 0.000243 | 114000 | – | – | – | 1F5-IgG (antibody, V domains shown) VH: QVQLVESGGGVVQPGRSLRLSCAASGFTFSSYDMHWVRQAPGKGLEWVAVIWYDGSNKYYADSVKGRFTISRDNSKNTLYLQMNSLRAEDTAVYYCARGSGNWGFFDYWGQGTLVTVSS VL: DIQMTQSPSSLSASVGDRVTITCRASQGISRWLAWYQQKPEKAPKSLIYAASSLQSGVPSRFSGSGSGTDFTLTISSLQPEDFATYYCQQYNTYPRTFGQGTKVEIK | Kd (Human CD27-His): 1.39 nM; koff (Human CD27-His): 9.15e-05 s⁻¹; kon (Human CD27-His): 65800 M⁻¹ s⁻¹
2 | – | – | – | – | – | – | mAb077-Fab (Fab, V domains shown, only the variable domains are tied to the Fab; also called mAb077 Fab fragment; mAb77) VH: EVQLVESGGGLVQPGGSLRLSCAASGFTFSGYGIHWVRQAPGKGLEWIGWINPNRGSTKYAQKFQGRVTISRDNSKNTLYLQLNSLRAEDTAVYYCARDPGYTWYFDVWGQGTLVTVSS VL: DIQLTQSPSSLSASVGDRVTITCRASQDISSDLAWYQQKPGKAPKLLIYAASTLQSGVPSRFSGSGSGTDFTLTISSLQPEDFATYYCQQRDAWPPTFGQGTKVEIK | Kd (Human CD27-HisFc [1]): 4.08 nM; koff (Human CD27-HisFc [1]): 0.00121 s⁻¹; kon (Human CD27-HisFc [1]): 296000 M⁻¹ s⁻¹
3 | – | – | – | 0.261 | 6.75e-05 | 259000 | 077N74T (antibody, V domains shown, The light chain is the same as in mAb077; also called mutant molecule 077N74T; 077N74T antibody) VH: EVQLVESGGGLVQPGGSLRLSCAASGFTFSGYGIHWVRQAPGKGLEWIGWINPNRGSTKYAQKFQGRVTISRDTSKNTLYLQLNSLRAEDTAVYYCARDPGYTWYFDVWGQGTLVTVSS VL: DIQLTQSPSSLSASVGDRVTITCRASQDISSDLAWYQQKPGKAPKLLIYAASTLQSGVPSRFSGSGSGTDFTLTISSLQPEDFATYYCQQRDAWPPTFGQGTKVEIKR | –
4 | 0.562 | 4.26e-05 | 75800 | 0.335 | 8.34e-05 | 249000 | mAb077-IgG (antibody, V domains shown, also called mAb77) VH: EVQLVESGGGLVQPGGSLRLSCAASGFTFSGYGIHWVRQAPGKGLEWIGWINPNRGSTKYAQKFQGRVTISRDNSKNTLYLQLNSLRAEDTAVYYCARDPGYTWYFDVWGQGTLVTVSS VL: DIQLTQSPSSLSASVGDRVTITCRASQDISSDLAWYQQKPGKAPKLLIYAASTLQSGVPSRFSGSGSGTDFTLTISSLQPEDFATYYCQQRDAWPPTFGQGTKVEIKR | Kd (Human CD27-HisFc [3]): 0.137 nM; koff (Human CD27-HisFc [3]): 2.17e-05 s⁻¹; kon (Human CD27-HisFc [3]): 158000 M⁻¹ s⁻¹; Kd (Murine CD27-HisFc): 0.0304 nM; koff (Murine CD27-HisFc): 1.33e-05 s⁻¹; kon (Murine CD27-HisFc): 438000 M⁻¹ s⁻¹

Source: US20210009706A1 (JIANGSU HENGRUI MEDICINE, published 2021)
